Literature values, collected in PMC4390431.
Read-outs that look alike come from different tables or passages of the source.

Key:
[1] = target: IscU (Escherichia coli) (UniProt P0ACD4); assay: SPR
[2] = target: IscU (Escherichia coli) (UniProt P0ACD4); assay: SPR; remark: listed apart in the source

UniProt P0ACD4, sequence (P0ACD4 whole entry): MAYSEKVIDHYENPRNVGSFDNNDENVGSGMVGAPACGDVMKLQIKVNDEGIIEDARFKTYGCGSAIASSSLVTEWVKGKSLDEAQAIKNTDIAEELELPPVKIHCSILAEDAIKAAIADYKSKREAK

HscA (from UniProt P0A6Z1)
Kd [1]: 0.1 µM
Kd [2]: 37 µM
